According to the supplement of paper PMC12764529:
± gives the half width of the 95% confidence interval.

Experiment: folding stability dG unfold from trypsin proteolysis; higher = more stable
Protocol: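 Folding stability of de novo designed mini-proteins (<80 aa, no Cys; designed by TrROS, TrMRF, ProteinMPNN and the joint model) was measured by cDNA display proteolysis with trypsin and chymotrypsin. Each protease was used at 11 concentrations in a threefold dilution series plus a no-protease condition. K50 was inferred by Bayesian fitting of sequencing counts, and dG unfold was derived against a sequence-predicted unfolded-state K50 (Tsuboyama et al. method). Sequences shown include variable-length N-terminal GS-type padding (SAGGSAGG...) inside a display construct carrying a PA tag. Rows were kept only if the AF2 dimer inter-PAE was >15, to exclude likely homo-oligomers.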
In the case of “SAGGSAGGSAMLKVTVKVPGTSKDYDFNVPESVGKEEAEKRLEEEYPGAEVTEIVEIPGEELSAGGSAGGSA [r18_242_JUSTAS]”, the “folding stability dG unfold” value is reported as 0.545 ± 0.027 kcal/mol. With “SAGGSAGGSPPYIRVKIEFQNPNGQERKFKITIPPDQPLSQAKDIAPDFAKNGYPVRIEDIEISAGGSAGGS [r12_804_TrROS]” the “folding stability dG unfold” value was -0.209 ± 0.17 kcal/mol. In the case of “SDDLSTTVTVTTPGGPTLTLTFPSNASVSTSPIDENSIVITFPGYEAVVEIAPGGKPRLKEVSEKEPVDSSA [r9_773_JUSTAS]”, the “folding stability dG unfold” value is reported as -0.534 ± 0.2 kcal/mol. In the case of “SGSMTPLTVEREVDITVVETRFLPNGGEVKKRRVTVTTTVTLPGGVPVSTQTTTIESPDLSEEEILERLSSA [r9_371_JUSTAS]”, the “folding stability dG unfold” value is reported as 0.357 ± 0.051 kcal/mol. In the case of “SAGGSAGGSAGGSALDRPVPVLVTGSIPLDGKFEDALGAAKAIEEEFAPYGYIVLSDVHVSAGGSAGGSAGG [r17_197_TrMRF]”, the “folding stability dG unfold” value is reported as 0.297 ± 0.048 kcal/mol. For “SAGMEAEAERIAEELERELPPTYRITSITVTPQPDNTWVAPITIEKVDAEGRVLGPSTVTVTLPPGLGSAGG [r19_28_JUSTAS]”, the “folding stability dG unfold” value was 0.494 ± 0.044 kcal/mol. With “SAGGSAGGDGHPDILNAVFTRTETFYREGDDEPGGEGTREILVVVTGDNPENPELALKEAEEAASAGGSAGG [r6_928_TrMRF]” the “folding stability dG unfold” value was 0.601 ± 0.055 kcal/mol. With “SAGGSAGGSAGMEDLVTVTETVETTDTLRDEGGTPTGTTTTTTTVTKLLSPEKVAALKEASAGGSAGGSAGG [r11_620_JUSTAS]” the “folding stability dG unfold” value was -0.116 ± 0.021 kcal/mol. For “SAGGSAGGMTVPASSYEGVPLKVTVSRGDENVSAEEAEVTPLPDGTVVVKLPESLPEDTEVTLESAGGSAGG [r6_630_JUSTAS]”, the “folding stability dG unfold” value was 0.703 ± 0.047 kcal/mol. For “SAGGSAGGMSPDVEVVTVERVITTTEPVSPSLSPEYLKAYPNATKTTTTVTVTVVPKERFEELTSAGGSAGG [r6_831_JUSTAS]”, the “folding stability dG unfold” value was -1.44 ± 0.43 kcal/mol. For “SAGGSAGGSEPDFVVVDIPFPPDVPLEALVEFARSLPSVVVNLVDEEGRPVSIALPREAVERLASAGGSAGG [r6_791_TrMRF]”, the “folding stability dG unfold” value was -0.347 ± 0.15 kcal/mol. With “SAGGSAGGSAGGSGSMVVEKVSPEPNVTKTIFFEPPEEGLVITVETLEGDTWSSQIILQSAGGSAGGSAGGS [r4_484_JUSTAS]” the “folding stability dG unfold” value was 0.657 ± 0.097 kcal/mol. With “SAGGSPKPIAEAILKELGYPDAIVKNIPIEKLENGIIIIPLEVIYPKNPKKGKPIKRIIKPNEKFASAGGSA [r2_137_TrMRF]” the “folding stability dG unfold” value was 0.108 ± 0.095 kcal/mol. With “SAGGSAGGSAGGSSLSTVAPSPSGRLYVELDIDEPVVSPTPIPTGTGPVSGIIVSPVLLSAGGSAGGSAGGS [r10_92_JUSTAS]” the “folding stability dG unfold” value was -0.989 ± 0.31 kcal/mol. For “SAGGSAGGSMKVITVPLPDGGTTTYEVEKGKVTITYPPSVTKEIEVPDPSKAIENIETVSYKSSAGGSAGGS [r12_32_JUSTAS]”, the “folding stability dG unfold” value was -0.76 ± 0.13 kcal/mol. For “SAGGSAGGSASSSVTITNRVTNPDTGLRYITIPSKGERVTLSPDESATIPVPPDAPVSVLGSSAGGSAGGSA [r18_329_JUSTAS]”, the “folding stability dG unfold” value was -0.694 ± 0.24 kcal/mol. In the case of “SAGGSAGGSATITISLGPPEYIEVYDPANGVKRKFPASVPKEEVAAEIEKEYPDTPVVFTTDASAGGSAGGS [r12_423_JUSTAS]”, the “folding stability dG unfold” value is reported as 0.394 ± 0.06 kcal/mol. In the case of “SAGGSAGGSAGGSMPKPKVIKVPVDPNVSKEEVAKEVLPKTGLNVESIEESEDVLYVLNSAGGSAGGSAGGS [r4_469_JUSTAS]”, the “folding stability dG unfold” value is reported as -1.11 ± 0.38 kcal/mol. For “SAGGSAGGSAGGKVLVRFPTGEVPEVVEIDVPFEAGDPEKAKEIADELLAKGAEEVVLEDSAGGSAGGSAGG [r11_196_TrMRF]”, the “folding stability dG unfold” value was 0.117 ± 0.056 kcal/mol. For “SAGGSAGGSAGMTLEEKLKEAEEKHKKEGGPATITITDPTATGVSKTYTVTIENEGLKVESAGGSAGGSAGG [r11_954_JUSTAS]”, the “folding stability dG unfold” value was 0.034 ± 0.055 kcal/mol. In the case of “SAGGSAGGSAGGGMKVVIPKEEAEKKGLTEAKLKEIEEKLKAKGIKVEIKLISSEEPELLSAGGSAGGSAGG [r7_972_JUSTAS]”, the “folding stability dG unfold” value is reported as 0.136 ± 0.12 kcal/mol. With “SNVFPMEMTITVPVRDPKNGKKKTVDIPVPMYYRMEPEPYPDGKREMEPIPMEQFLEEIRRQAKELAKKGSA [r9_698_TrROS]” the “folding stability dG unfold” value was 0.764 ± 0.21 kcal/mol. With “SAGGSAGGSAGGDPLERKPVKVLVLHPDKPIELEVDVGLSPEEIARPFAEKGYEVRFEGSAGGSAGGSAGGS [r10_540_TrMRF]” the “folding stability dG unfold” value was -1.17 ± 0.29 kcal/mol. In the case of “SAGMKELVLVERDAPVLGVYLDPETGRPRLEPRPVPVVVVVEVEPDSEAARELAEKLAPEDVRVEVLPASAG [r5_468_TrMRF]”, the “folding stability dG unfold” value is reported as 0.164 ± 0.05 kcal/mol. In the case of “SAGGSAGGSAGGDSSAPKPVIVEEGSVILEVKRDPKHGVITILSRNPLGGELITYEIPRSAGGSAGGSAGGS [r10_427_JUSTAS]”, the “folding stability dG unfold” value is reported as -0.563 ± 0.28 kcal/mol. With “SAASTLKATLRPPDGSTLDVTVLDPGEGWLLQLGDGSERVSPEELEALLANDPSLVVEELTELPLEELSSAG [r14_336_JUSTAS]” the “folding stability dG unfold” value was 0.175 ± 0.05 kcal/mol. For “SAGGSAGGSAGGPPEITVEHHPPNGYMTLTIPDGRPIEIPMPPNRPPSDVKNRAKDLIKSAGGSAGGSAGGS [r10_33_TrROS]”, the “folding stability dG unfold” value was -0.457 ± 0.39 kcal/mol. With “SAGGSAGGSAGMKTYTVPLPGGDPALIEQTAQDIVEKIPGLEDHEVKVDAGDDGTLTIVESAGGSAGGSAGG [r17_324_JUSTAS]” the “folding stability dG unfold” value was -0.736 ± 0.16 kcal/mol. For “SAGGGVTREIPITIKTSEGEPEETITVPAKSREEVDPETGRPVSSVDPGSIEEIKAKLPSSVTSVVLSAGGS [r16_522_JUSTAS]”, the “folding stability dG unfold” value was -0.68 ± 0.077 kcal/mol. In the case of “SAGGWIPIDEIKDLLDNGKPMPLEQIVKEIQKDFGYPVTIEEDDDSFWIHVENPNTGEPREEIEIDPSAGGS [r8_105_TrROS]”, the “folding stability dG unfold” value is reported as 0.354 ± 0.11 kcal/mol. With “SAGGSAGGSGKTIIIPLPNGNVIKVEVEEGSVKITYPKPKKELIKVENPKNALKNIKTYSYKGSAGGSAGGS [r12_32_TrMRF]” the “folding stability dG unfold” value was -0.176 ± 0.32 kcal/mol. With “SAGGSAGGSAGGGKDVPVIAVPAGDEEAAEEFARRLVAELERRTGKPAGDIPVDFVEVESAGGSAGGSAGGS [r10_1216_TrMRF]” the “folding stability dG unfold” value was -0.243 ± 0.2 kcal/mol. In the case of “SAGGSAGGSAHTIEDPDNNKKIEVHPPPNGNYMVEIERPDNGEKKTIMMPPDDVEEALNQISAGGSAGGSAG [r3_162_TrROS]”, the “folding stability dG unfold” value is reported as -0.139 ± 0.2 kcal/mol. For “SAGGSAGGSAGGETVVEEDPAAGTTVVTYHEPLPTPSTRENVTTLTHDPSSSAATTTESSAGGSAGGSAGGS [r10_1041_JUSTAS]”, the “folding stability dG unfold” value was -1.14 ± 0.27 kcal/mol. For “SAGGIKLPPGQEIEGKIQYPFPDGMFMTSEQPIRIPPVPPPPPEVEVHLPDGERKPVRSPEEADDAASAGGS [r16_580_TrROS]”, the “folding stability dG unfold” value was 0.0184 ± 0.049 kcal/mol. In the case of “SAGGSAGGDPSRLPVITPETFNVPVPAPGGVNETVTVTVIKLPGGETIVTTTYPDGKTTTELIPSAGGSAGG [r6_111_JUSTAS]”, the “folding stability dG unfold” value is reported as 0.927 ± 0.058 kcal/mol. With “SAGGSMIEVEIENPDPSVSPEEIAERVIRELTPDGGPLQPLEIKPTLVGDKPVYKIKIYIPDPELIKESAGG [r13_979_JUSTAS]” the “folding stability dG unfold” value was -0.519 ± 0.2 kcal/mol. With “SAGGSAGGSAGGTAEELKEKLPDVEFVPLEELENSVLILAKPPGGPVKLILVDGDKVVVASAGGSAGGSAGG [r7_25_TrMRF]” the “folding stability dG unfold” value was 0.322 ± 0.097 kcal/mol. In the case of “SAGGSAGGKIEIFDQDQHDEMNQENGMPPKNYWMIRINGKPTAILPPDKPLTPNTIKNLIKEGLSAGGSAGG [r6_243_TrROS]”, the “folding stability dG unfold” value is reported as 0.447 ± 0.15 kcal/mol. In the case of “SAGGSAGGSAGGPKTVTISGGPLEDLLEKLDNMPPDDTITIHHPGGYYTVKVENDKIKIVSAGGSAGGSAGG [r7_560_TrROS]”, the “folding stability dG unfold” value is reported as -0.416 ± 0.13 kcal/mol. With “SAGGNWIMIELPLDDLKNAKPNQKVKIEWPDGKPFEVNAHRHDGRYPVLVRNPENPDKWEPIGEIEIESAGG [r13_745_TrROS]” the “folding stability dG unfold” value was -0.0737 ± 0.11 kcal/mol. In the case of “SAAVSFTPDGRPRRLEPVPPVPPVIEIPVPLNIPESDPAKKEALRKEIKEKIMKELGLPESVPVKVILLSAG [r14_453_JUSTAS]”, the “folding stability dG unfold” value is reported as 0.199 ± 0.15 kcal/mol. In the case of “SAGGSAGGSAGGMEKKLTLVTTRTPEGGSETILVDDSDPEKVRAELEEAGWTITETTSSSAGGSAGGSAGGS [r10_882_JUSTAS]”, the “folding stability dG unfold” value is reported as -0.793 ± 0.95 kcal/mol. With “SAGGSAGGMKAKVLVLDPETGKEYDSLEELKAEVEGPVLIRNSTGELILLHRDDLKYFPLPLSLSAGGSAGG [r6_684_TrMRF]” the “folding stability dG unfold” value was 0.305 ± 0.12 kcal/mol. In the case of “SAGGSAGGSAGGRMYPITFPGKTIEDIEEEIEELPPNYQINIDHDENGHMKVWIMPPDDFSAGGSAGGSAGG [r7_662_TrROS]”, the “folding stability dG unfold” value is reported as -0.422 ± 0.33 kcal/mol. With “SAGGSAGGSMERLENGIERIRLLVRFPERDEVRLIEIPLDNVTPEEIIERARELGAEEIELLESAGGSAGGS [r12_792_TrMRF]” the “folding stability dG unfold” value was 0.11 ± 0.26 kcal/mol.
